In patent publication US20260250320A1, “LIPIDATED PEPTIDE INHIBITORS OF INTERLEUKIN-23 RECEPTOR” (Janssen Pharmaceutica NV, priority 2023, published 2026):
*1 amine or outer side, *2 acyl side, *3 side chain or, on linkers, in order; H or OH if unused. Where a SMILES comes first, the peptide text is derived from it. Bridges are numbered along the chain shown (N, C = ends). Primed or numbered codes have the meaning given here. Where no end group is shown, it is not given here. Side-chain parts run from the residue outwards. [ ]: non-standard residue; d: D form. The star is where a group is joined. code d = side-chain group of K(d): lysine given as (2R)-2-(4-((5-amino-5-carboxypentyl)amino)-4-oxobutanamido)-3-carboxy-N,N,N-trimethylpropan-1-aminium, C[N+](C)(C)C[C@@H](CC(=O)O)NC(=O)CCC(=O)*; X13 = O=C(O)CCCCCCCCCCCCCCCCC(=O)NCCOCCOCCOCCOCCOCCOCCOCCOCCOCCOCCOCCOCC(=O)*; Me3N+CH2CH2(OCH2CH2)4CO = C[N+](C)(C)CCOCCOCCOCCOCCC(=O)*; PEG12 = NCCOCCOCCOCCOCCOCCOCCOCCOCCOCCOCCOCCOCCC(=O)O; Trp(7-Me,2,3-dihydro) = Cc1cccc2c1NCC2C[C@H](N)C(=O)O; PEG2′ = PEG2 spacer unit (not further defined); Trp(7-Me) = Cc1cccc2c(C[C@H](N)C(=O)O)c[nH]c12; C18 diacid = O=C(O)CCCCCCCCCCCCCCCCC(=O)*; X6 = CN(CC[C@H](N[*:1])C(=O)[*:2])[*:3]; γGlu = O=C(O)[C@H](CCC(=O)[*:2])N[*:1]; 2Nal = N[C@@H](Cc1ccc2ccccc2c1)C(=O)O; AEF = NCCOc1ccc(C[C@H](N)C(=O)O)cc1; 3Pal = N[C@@H](Cc1cccnc1)C(=O)O; succiniccarn = not defined here; NMeK = CN[C@@H](CCCCN)C(=O)O; Pen = CC(C)(S)[C@H](N)C(=O)O; dAEF′ = not defined here; Thp = NC1(C(=O)O)CCOCC1; Sar = CNCC(=O)O

B1: SEQ ID NO: 36 (peptide)
peptide: Ac-[dR][Pen]NT[Trp(7-Me)]K([PEG2′-PEG2′-γGlu-C18OH])[Pen][dAEF′][2Nal][Thp]EN[3Pal][Sar]-NH2
modifications: disulfide 2-7 (inferred); reading uncertain; also: printed as MeCO-r-Pen(3)-N-T-7MeW-K(PEG2PEG2gEC18OH)-Pen(3)-AEF(d)-2Nal-THP-E-N-3Pya-Sar-CONH2
B2: SEQ ID NO: 2 (peptide)
peptide: XNTXXXXXXXNXXK
modifications: not fully specified; MeCO-Pen(3)-N-T-7MeW-K(Ac)-Pen(3)-AEF-2Nal-THP-K(Ac)-N-3Pya-Sar-K(PEG2NMePEG2NMegENMeC18Tetrazole)-CONH2
B3: SEQ ID NO: 31 (peptide)
peptide: succiniccarn-[dR][Pen]NT[Trp(7-Me)]K(Ac)[Pen][AEF][2Nal][Thp]EN[3Pal][NMeK]([PEG2′-PEG2′-γGlu-C18OH])-NH2
modifications: disulfide 2-7 (inferred); reading uncertain; also: printed as succiniccarn-r-Pen(3)-N-T-7MeW-K(Ac)-Pen(3)-AEF-2Nal-THP-E-N-3Pya-NMeK(PEG2PEG2gEC18OH)-CONH2
B4: SEQ ID NO: 45 (peptide)
peptide: [dR][Pen]NT[Trp(7-Me)]K(Ac)[Pen][AEF][2Nal][Thp]K(code d)N[3Pal][Sar]-NH2
modifications: disulfide 2-7 (inferred); not fully specified (N-terminus); printed as HOC18gEPEG2PEG2CO-r-Pen(3)-N-T-7MeW-K(Ac)-Pen(3)-AEF-2Nal-THP-K(d)-N-3Pya-Sar-CONH2
B5: SEQ ID NO: 20 (peptide)
peptide: succiniccarn-[dR][Pen]NT[Trp(7-Me)]K([PEG2′-PEG2′-γGlu-C18OH])[Pen][AEF][2Nal][Thp]EN[3Pal][Sar]-NH2
modifications: disulfide 2-7 (inferred); reading uncertain; also: printed as succiniccarn-r-Pen(3)-N-T-7MeW-K(PEG2PEG2gEC18OH)-Pen(3)-AEF-2Nal-THP-E-N-3Pya-Sar-CONH2

biological target: T1, interleukin-23 receptor (IL-23R) (UniProt Q5VWK5 24-629, limits assumed); test: cell-based or functional assay; details: not given
T1 sequence (looked up): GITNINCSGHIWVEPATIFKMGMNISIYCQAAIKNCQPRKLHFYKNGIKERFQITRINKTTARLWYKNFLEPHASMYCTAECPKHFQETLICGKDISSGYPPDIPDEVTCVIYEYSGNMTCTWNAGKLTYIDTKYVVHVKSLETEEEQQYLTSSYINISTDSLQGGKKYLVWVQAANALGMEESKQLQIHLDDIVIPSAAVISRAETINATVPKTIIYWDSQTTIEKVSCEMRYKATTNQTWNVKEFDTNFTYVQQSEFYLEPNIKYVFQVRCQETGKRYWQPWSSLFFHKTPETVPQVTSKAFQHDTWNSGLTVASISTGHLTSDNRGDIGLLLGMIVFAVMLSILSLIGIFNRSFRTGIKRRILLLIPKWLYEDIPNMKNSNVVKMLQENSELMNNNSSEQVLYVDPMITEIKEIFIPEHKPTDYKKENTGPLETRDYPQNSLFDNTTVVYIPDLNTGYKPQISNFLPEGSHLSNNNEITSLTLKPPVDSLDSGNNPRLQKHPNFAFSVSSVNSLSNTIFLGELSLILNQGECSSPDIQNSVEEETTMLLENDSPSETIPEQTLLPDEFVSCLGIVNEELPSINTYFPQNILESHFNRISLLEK

| Molecule | PBMC pSTAT3 IC50 [nM] |
| --- | --- |
| B1 | < 0.5 |
| B2 | < 0.5 |
| B3 | < 0.5 |
| B4 | < 0.5 |
| B5 | < 0.5 |

biological target: T2, IL-23R (Homo sapiens, UniProt Q5VWK5); test: IL23R Reporter Assay; type: cell-based; details: HEK293 cells containing IL-23R, IL-12Rβ1 and STAT-inducible firefly luciferase reporter; 10 ng/mL IL-23 (EC90); 5 h
T2 construct: HEK293 cells containing IL-23R, IL-12Rβ1 and a firefly luciferase reporter gene driven by a STAT-inducible promoter (Promega); host or cells: HEK293
T2 sequence (Q5VWK5 24-629): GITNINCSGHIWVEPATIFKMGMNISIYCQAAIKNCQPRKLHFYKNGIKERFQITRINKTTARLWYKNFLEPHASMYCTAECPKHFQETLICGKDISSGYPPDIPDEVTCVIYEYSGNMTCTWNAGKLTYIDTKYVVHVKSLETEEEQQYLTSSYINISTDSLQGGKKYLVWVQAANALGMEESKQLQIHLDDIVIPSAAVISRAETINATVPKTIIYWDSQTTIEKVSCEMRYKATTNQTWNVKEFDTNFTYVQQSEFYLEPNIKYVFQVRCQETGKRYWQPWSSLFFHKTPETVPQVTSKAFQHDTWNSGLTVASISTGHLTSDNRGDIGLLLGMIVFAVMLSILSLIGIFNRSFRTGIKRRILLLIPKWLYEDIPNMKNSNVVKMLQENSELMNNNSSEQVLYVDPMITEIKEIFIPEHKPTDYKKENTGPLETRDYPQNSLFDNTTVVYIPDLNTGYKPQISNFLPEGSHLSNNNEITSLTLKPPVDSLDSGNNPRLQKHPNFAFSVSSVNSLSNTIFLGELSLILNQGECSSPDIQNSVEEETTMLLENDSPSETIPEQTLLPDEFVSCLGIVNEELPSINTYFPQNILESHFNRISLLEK
Method in brief: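 IC50 values were fitted with a 4-parameter Hill equation to luciferase signal, scaled between IL-23-only wells (0% inhibition) and 30 μM reference inhibitor (100%). The readout was a STAT-inducible reporter in IL-23R/IL-12Rβ1 HEK293 cells, stimulated with added 10 ng/mL IL-23 (EC90) for 5 h at 37° C and developed with BioGlo.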

| Molecule | IC50 [nM] |
| --- | --- |
| Cc1cccc2c1NCC2C[C@@H]1NC(=O)[C@H]([C@@H](C)O)NC(=O)[C@H](CC(=O)N(C)C)NC(=O)[C@@H](NC(=O)CCOCCOCCOCCOCC[N+](C)(C)C)C(C)(C)SSC(C)(C)[C@@H](C(=O)N[C@@H](Cc2ccc(OCCN)cc2)C(=O)N[C@@H](Cc2ccc3ccccc3c2)C(=O)NC2(C(=O)N[C@@H](CCC(=O)O)C(=O)N[C@@H](CC(N)=O)C(=O)N[C@@H](Cc3cccnc3)C(=O)N(C)[C@@H](CCCCNC(=O)COCCOCCOCCOCCOCCOCCOCCOCCOCCOCCOCCOCCNC(=O)CCCCCCCCCCCCCCCCC(=O)O)C(N)=O)CCOCC2)NC(=O)[C@H](CCN(C)C(=O)CCOCCOCCOCCOCC[N+](C)(C)C)NC1=O (stereo partly drawn) [compound 136, cPEG5aCO-Pen(3)-N(N(Me)2)-T-7MeW-Dab(NMecPEG5a)-Pen(3)-AEF-2Nal-THP-E-N-3Pya-NMeK(PEG12C18OH)-CONH2] ({Me3N+CH2CH2(OCH2CH2)4CO}-[Pen]D(NMe2)T[Trp(7-Me,2,3-dihydro)][X6](Me3N+CH2CH2(OCH2CH2)4CO)[Pen][AEF][2Nal][Thp]EN[3Pal][NMeK](X13)-NH2; disulfide 1-6) | 50 to 500 |
| CC(=O)NCCCC[C@@H]1NC(=O)[C@H](CC2CNc3c(C)cccc32)NC(=O)[C@H]([C@@H](C)O)NC(=O)[C@H](CC(N)=O)NC(=O)[C@@H](NC(=O)[C@@H](CCCNC(=N)N)NC(C)=O)C(C)(C)SSC(C)(C)[C@@H](C(=O)N[C@@H](Cc2ccc(OCCN)cc2)C(=O)N[C@@H](Cc2ccc3ccccc3c2)C(=O)NCC(=O)N[C@@H](CCCCNC(=O)CCOCCOCCOCCOCCOCCOCCOCCOCCOCCOCCOCCOCCNC(=O)CC[C@H](NC(=O)CCCCCCCCCCCCCCCCC(=O)O)C(=O)O)C(=O)N[C@@H](CC(N)=O)C(=O)N[C@@H](Cc2cccnc2)C(=O)N(C)CC(N)=O)NC1=O (stereo partly drawn) [compound 146, MeCO-r-Pen(3)-N-T-7MeW-K(Ac)-Pen(3)-AEF-2Nal-THP-K(PEG12gEC18OH)-N-3Pya-Sar-CONH2] (Ac-[dR][Pen]NT[Trp(7-Me,2,3-dihydro)]K(Ac)[Pen][AEF][2Nal]GK([PEG12-γGlu-C18 diacid])N[3Pal][Sar]-NH2; disulfide 2-7) | 50 to 500 |

test system: IL-23-stimulated phosphorylated STAT3 in peripheral blood mononuclear cells (PBMCs); test: PBMC pSTAT3 Assay; type: cell-based; details: PBMCs from healthy donors; 30 min preincubation with peptide; IL-23 5 ng/mL for 30 min; phospho-STAT3 by MSD
Method in brief: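 Phospho-STAT3 quantified by Meso Scale assay in lysates of PBMCs exposed to IL-23 (5 ng/mL, 30 min, 37 °C) after 30 min peptide pretreatment. Cells were cryopreserved donor PBMCs activated 4 days with anti-CD3 plus IL-1β (100 ng/mL) and starved ~4 h; IC50 reported.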

| Molecule | IC50 [nM] |
| --- | --- |
| Cc1cccc2c1NCC2C[C@@H]1NC(=O)[C@H]([C@@H](C)O)NC(=O)[C@H](CC(=O)N(C)C)NC(=O)[C@@H](NC(=O)CCOCCOCCOCCOCC[N+](C)(C)C)C(C)(C)SSC(C)(C)[C@@H](C(=O)N[C@@H](Cc2ccc(OCCN)cc2)C(=O)N[C@@H](Cc2ccc3ccccc3c2)C(=O)NC2(C(=O)N[C@@H](CCC(=O)O)C(=O)N[C@@H](CC(N)=O)C(=O)N[C@@H](Cc3cccnc3)C(=O)N(C)[C@@H](CCCCNC(=O)COCCOCCOCCOCCOCCOCCOCCOCCOCCOCCOCCOCCNC(=O)CCCCCCCCCCCCCCCCC(=O)O)C(N)=O)CCOCC2)NC(=O)[C@H](CCN(C)C(=O)CCOCCOCCOCCOCC[N+](C)(C)C)NC1=O (stereo partly drawn) [compound 136, cPEG5aCO-Pen(3)-N(N(Me)2)-T-7MeW-Dab(NMecPEG5a)-Pen(3)-AEF-2Nal-THP-E-N-3Pya-NMeK(PEG12C18OH)-CONH2] ({Me3N+CH2CH2(OCH2CH2)4CO}-[Pen]D(NMe2)T[Trp(7-Me,2,3-dihydro)][X6](Me3N+CH2CH2(OCH2CH2)4CO)[Pen][AEF][2Nal][Thp]EN[3Pal][NMeK](X13)-NH2; disulfide 1-6) | 0.5 to 5 |
| CC(=O)NCCCC[C@@H]1NC(=O)[C@H](CC2CNc3c(C)cccc32)NC(=O)[C@H]([C@@H](C)O)NC(=O)[C@H](CC(N)=O)NC(=O)[C@@H](NC(=O)[C@@H](CCCNC(=N)N)NC(C)=O)C(C)(C)SSC(C)(C)[C@@H](C(=O)N[C@@H](Cc2ccc(OCCN)cc2)C(=O)N[C@@H](Cc2ccc3ccccc3c2)C(=O)NCC(=O)N[C@@H](CCCCNC(=O)CCOCCOCCOCCOCCOCCOCCOCCOCCOCCOCCOCCOCCNC(=O)CC[C@H](NC(=O)CCCCCCCCCCCCCCCCC(=O)O)C(=O)O)C(=O)N[C@@H](CC(N)=O)C(=O)N[C@@H](Cc2cccnc2)C(=O)N(C)CC(N)=O)NC1=O (stereo partly drawn) [compound 146, MeCO-r-Pen(3)-N-T-7MeW-K(Ac)-Pen(3)-AEF-2Nal-THP-K(PEG12gEC18OH)-N-3Pya-Sar-CONH2] (Ac-[dR][Pen]NT[Trp(7-Me,2,3-dihydro)]K(Ac)[Pen][AEF][2Nal]GK([PEG12-γGlu-C18 diacid])N[3Pal][Sar]-NH2; disulfide 2-7) | < 0.5 |
